Test results from paper PMC314469, “Protein Interaction Networks by Proteome Peptide Scanning” (PLoS Biology, 2004).

T1: amphyphisin SH3 (AMPH_HUMAN), P49418
T1 chain: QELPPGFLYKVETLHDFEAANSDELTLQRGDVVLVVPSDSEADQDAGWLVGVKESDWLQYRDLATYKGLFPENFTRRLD


Target: T1, amphyphisin SH3 (AMPH_HUMAN), P49418
Test: SPOT array

Row | Binder | normalised SPOT signal, Boehringer light units (BLU); mean over the file's lines of this peptide
1 | SSSGPKRPQDKVAV [P21399 369-382] | 50.5
2 | STSFPRRPLAVEGG [O00124 234-247] | 53
3 | SSSAPRRPSSLQSL [P39880 1446-1459] | 37.2
4 | SSEEPRRPLRSDMV [Q9H6D1 6-19] | 1890
5 | SQGPPPRPGKPEGP [Q9UCT9 1-14] | 106
6 | SQQNFHRPVKVRKK [Q9UI45 537-550] | 52.5
7 | SSDWLRRPLGEDNQ [Q9Y6S1 96-109] | 43.6
8 | SSRDLSRPPKKGEL [O94930 369-382] | 119
9 | SDGNPRRPSPVLRH [P51172 134-147] | 60.5
10 | SRLHFGRPRRADYL [Q13629 53-66] | 842
11 | SQSFIIRPQKEGER [Q05397 355-368] | 118
12 | SRSPPKKPPKRTSS [O60585 365-379] | 236
13 | SRGPPRRPPRSVKL [Q96DR3 69-83] | 20600
14 | SSHSPYRPPTNYRN [Q8TEB6 103-117] | 51.9
15 | SSGPPPKPPVSSGS [Q9NR59 803-817] | 81.4
16 | SSTLPQKPPYSFID [Q9H0N0 213-227] | 56.1
17 | SSYTFKRPVTRITP [Q8WWY6 31-44] | 18.6
18 | SSPEPPRPAKRPRR [Q9P2A7 954-967] | 614
19 | SSPLLKRPVRTQAV [Q9Y5M0 381-394] | 1640
20 | SSNTIRRPRNYSVG [O60825 472-485] | 31.8
21 | SQIPPQRPQRDQRV [Q13283 290-303] | 14100

Row | Binder | normalised SPOT signal, Boehringer light units (BLU); mean over the file's lines of this peptide
22 | SSRRPVRPGRRGLG [Q14160 1547-1560] | 7270
23 | STQSLKRPGTSQAG [O94820 555-568] | 42
24 | SRKNLKRPIAHLPS [Q13112 270-283] | 60.1
25 | SQNEPKRPMSGEYG [Q9Y6X4 283-296] | 17
26 | SSGILKRPQTLAIP [Q9Y2W3 232-245] | 71.5
27 | SSTFLQRPIRKPSK [Q9UI27 293-306] | 4730
28 | SRNIFKRPLGSRIE [P12111 1320-1333] | 30.4
29 | SSVRPPRPKKEPQT [Q9H875 7-20] | 2350
30 | SQRRPRRPPTVFRL [Q96Q00 325-339] | 1550
31 | SRLTLLRPEKDGEA [Q9H7S7 483-496] | 214
32 | SQGPPPRPGKPEGQ [Q04118 68-81] | 120
33 | SSKPIKRPVLDPFI [Q96AA8 422-435] | 35.4
34 | SDKAFSRPDKLRLH [Q9NQV6 563-576] | 117
35 | SQQPPSRPPHLPVE [Q9UPQ2 54-68] | 45.1
36 | SQGPPPRPGKPEGS [Q04118 215-228] | 103
37 | SSVALKRPPPAPPV [P78325 741-754] | 24.3
38 | SQPGPAKPPAQPSG [Q9Y6V0 287-301] | 78.5
39 | STAGPLRPPPPGAG [Q9Y6T1 410-424] | 61.4
40 | SSTNPFRPQKVSSF [P30670 54-67] | 77.5
41 | SSPGPKRPGNTLRK [O75962 1703-1716] | 51.9
42 | SREGPARPYRLKPG [Q9ULL4 1157-1170] | 1270

Each binder was assayed against endophilin SH3 (SH3G2_HUMAN), Q99962 (assay: SPOT array).

Row | Binder | normalised SPOT signal, Boehringer light units (BLU); mean over the file's lines of this peptide
43 | SSSGPKRPQDKVAV [P21399 369-382] | 50.4
44 | STSFPRRPLAVEGG [O00124 234-247] | 132
45 | SSSAPRRPSSLQSL [P39880 1446-1459] | 1050
46 | SSEEPRRPLRSDMV [Q9H6D1 6-19] | 110
47 | SQGPPPRPGKPEGP [Q9UCT9 1-14] | 3230
48 | SQQNFHRPVKVRKK [Q9UI45 537-550] | 99.7
49 | SSDWLRRPLGEDNQ [Q9Y6S1 96-109] | 37.4
50 | SSRDLSRPPKKGEL [O94930 369-382] | 109
51 | SDGNPRRPSPVLRH [P51172 134-147] | 577
52 | SRLHFGRPRRADYL [Q13629 53-66] | 202
53 | SQSFIIRPQKEGER [Q05397 355-368] | 87.4
54 | SRSPPKKPPKRTSS [O60585 365-379] | 2210
55 | SRGPPRRPPRSVKL [Q96DR3 69-83] | 10200
56 | SSHSPYRPPTNYRN [Q8TEB6 103-117] | 681
57 | SSGPPPKPPVSSGS [Q9NR59 803-817] | 122
58 | SSTLPQKPPYSFID [Q9H0N0 213-227] | 27.3
59 | SSYTFKRPVTRITP [Q8WWY6 31-44] | 89.6
60 | SSPEPPRPAKRPRR [Q9P2A7 954-967] | 181
61 | SSPLLKRPVRTQAV [Q9Y5M0 381-394] | 195
62 | SSNTIRRPRNYSVG [O60825 472-485] | 7.4
63 | SQIPPQRPQRDQRV [Q13283 290-303] | 15300

Row | Binder | normalised SPOT signal, Boehringer light units (BLU); mean over the file's lines of this peptide
64 | SSRRPVRPGRRGLG [Q14160 1547-1560] | 1850
65 | STQSLKRPGTSQAG [O94820 555-568] | 5.6
66 | SRKNLKRPIAHLPS [Q13112 270-283] | 33.5
67 | SQNEPKRPMSGEYG [Q9Y6X4 283-296] | 21.5
68 | SSGILKRPQTLAIP [Q9Y2W3 232-245] | 10.4
69 | SSTFLQRPIRKPSK [Q9UI27 293-306] | 341
70 | SRNIFKRPLGSRIE [P12111 1320-1333] | 0.9
71 | SSVRPPRPKKEPQT [Q9H875 7-20] | 1060
72 | SQRRPRRPPTVFRL [Q96Q00 325-339] | 10900
73 | SRLTLLRPEKDGEA [Q9H7S7 483-496] | 185
74 | SQGPPPRPGKPEGQ [Q04118 68-81] | 103
75 | SSKPIKRPVLDPFI [Q96AA8 422-435] | 189
76 | SDKAFSRPDKLRLH [Q9NQV6 563-576] | 54.6
77 | SQQPPSRPPHLPVE [Q9UPQ2 54-68] | 775
78 | SQGPPPRPGKPEGS [Q04118 215-228] | 132
79 | SSVALKRPPPAPPV [P78325 741-754] | 21.2
80 | SQPGPAKPPAQPSG [Q9Y6V0 287-301] | 130
81 | STAGPLRPPPPGAG [Q9Y6T1 410-424] | 1850
82 | SSTNPFRPQKVSSF [P30670 54-67] | 1350
83 | SSPGPKRPGNTLRK [O75962 1703-1716] | 619
84 | SREGPARPYRLKPG [Q9ULL4 1157-1170] | 1200
